Values of other authors in PMC3022542.
Like-named read-outs stand apart in the source and are kept apart here.

Key:
[1] = biological target: importin α5 (Homo sapiens) (UniProt P52294); experiment: isothermal titration calorimetry
[2] = biological target: importin α5 (Homo sapiens) (UniProt P52294); experiment: isothermal titration calorimetry; remark: listed apart in the source

Chain of UniProt P52294 (P52294 whole entry): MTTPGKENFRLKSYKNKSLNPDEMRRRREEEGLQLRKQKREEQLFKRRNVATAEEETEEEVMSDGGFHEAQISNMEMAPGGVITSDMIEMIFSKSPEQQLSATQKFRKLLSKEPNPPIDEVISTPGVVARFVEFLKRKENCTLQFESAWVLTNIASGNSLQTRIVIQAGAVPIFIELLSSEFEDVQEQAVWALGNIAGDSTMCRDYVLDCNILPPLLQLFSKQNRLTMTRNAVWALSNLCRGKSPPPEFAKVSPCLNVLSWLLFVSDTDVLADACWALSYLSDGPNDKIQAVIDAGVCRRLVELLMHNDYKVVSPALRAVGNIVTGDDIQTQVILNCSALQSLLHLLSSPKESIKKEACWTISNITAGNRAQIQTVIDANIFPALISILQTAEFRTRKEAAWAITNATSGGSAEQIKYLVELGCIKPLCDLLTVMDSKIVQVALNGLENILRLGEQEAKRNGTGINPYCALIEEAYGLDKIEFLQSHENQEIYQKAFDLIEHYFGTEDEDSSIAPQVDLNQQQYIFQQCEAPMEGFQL

Q: Which Kd [1] does the source give for “EBNA-1 NLS peptide NLS (from UniProt P03211)” here?
A: 60 µM

Q: What about the Kd [2] of the same substance?
A: 3 µM
